Values of other authors as cited in paper PMC10219547.
pKd: −log10 of the molar value. Where two headings read alike, the source gives them in different places.

Legend:
PTH1R (Homo sapiens) [1] = molecular target: PTH1R (Homo sapiens) (UniProt Q03431)
PTH1R (Homo sapiens) [2] = molecular target: PTH1R (Homo sapiens) (UniProt Q03431); remark: listed apart in the source

Sequence of UniProt Q03431 (Q03431 27-593): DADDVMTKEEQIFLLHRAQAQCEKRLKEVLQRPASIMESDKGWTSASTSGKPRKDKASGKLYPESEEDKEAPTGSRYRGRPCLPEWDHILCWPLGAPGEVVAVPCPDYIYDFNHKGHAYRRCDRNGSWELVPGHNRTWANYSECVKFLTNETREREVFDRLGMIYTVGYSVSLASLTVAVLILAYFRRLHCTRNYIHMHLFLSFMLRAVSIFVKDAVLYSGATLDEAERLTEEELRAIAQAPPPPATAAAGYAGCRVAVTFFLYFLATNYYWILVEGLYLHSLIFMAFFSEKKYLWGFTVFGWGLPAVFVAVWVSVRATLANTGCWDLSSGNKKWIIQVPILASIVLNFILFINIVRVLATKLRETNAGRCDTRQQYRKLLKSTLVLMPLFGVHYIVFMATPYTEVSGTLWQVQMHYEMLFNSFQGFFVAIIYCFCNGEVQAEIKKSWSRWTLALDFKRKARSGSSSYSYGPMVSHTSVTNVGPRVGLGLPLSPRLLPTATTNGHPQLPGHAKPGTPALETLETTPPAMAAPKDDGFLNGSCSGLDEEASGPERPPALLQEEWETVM

Row | pKd (PTH1R (Homo sapiens) [1]) | pKd (PTH1R (Homo sapiens) [2]) | Substance
1 | 7.22 |  | TIP39 (from UniProt Q96A98)
2 |  | 7.77 | TIP(7-39) 7-39 (from UniProt Q96A98)
